Patent publication US20210355205A1

How the values were obtained:
[1] = target: Cynomolgus IL-5 (cynomolgus monkey); assay: cell-based or functional assay
[2] = target: recombinant human IL-5 (human) (UniProt P05113); assay: cell-based or functional assay

Which results are given for Mepolizumab (antibody)?
Mean (pM): mean IC50, TF-1.6G4 cell line proliferation assay [1]: 584 pM; Mean (pM): mean IC50, TF-1.6G4 cell line proliferation assay [2]: 534 pM
